Experiment: soluble on expression in E. coli; label from the status in PepcDB or PDB records

Sequence | soluble on expression in E. coli
MSLEALMNVQFFDHAHHKLKIRGLQSPVDVLTFEGREQLSTPFRYDIQFTSSDKAIAPESVLMQDGAFSLTAPPVQGMPVQTALRTLHGVITGFKHLSSSQDEARYEVRLEPRMALLTRSRQNAIYQNQTVPQIVEKILRERHQMRGQDFVFNLKSEYPAREQVMQYGEDDLTFVSRLLSEVGIWFRFATDARLKIEVIEFYDDQSGYERGLTLPLRHPSGLFDGETEAVWGLNTAYSVVEKSVSTRDYNYREATAEMTTGQHDATGGDNTTYGEAYHYADNFLQQGDKEAAESGAFYARIRHERYLNEQAILKGQSTSSLLMPGLEIKVQGDDAPAVFRKGVLITGVTTSAARDRSYELTFTAIPYSERYGYRPALIPRPVMAGTLPARVTSTVKNDIYAHIDKDGRYRVNLDFDRDTWKPGYESLWVRQSRPYAGDTYGLHLPLLAGTEVSIAFEEGNPDRPYIAGVKHDSAHTDHVTIQNYKRNVLRTPANNKIRLDDERGKEHIKVSTEYGGKSQLNLGHLVDAGKEQRGEGFELRTDLWGAVRAKKGIFISADAQDKAQGQVLEMQPALARLSAALVTMESLAASAQQAQALAADVSRQQTLLQQKIEQLQQEVLLGSAPKGVALVSGEDMQLSASDNLTLTAGKQLDIGVQKDFTLAAGKQLSLYSRAGAKLFSSHNDIDIQAQGGNLTTWSTQDTYISSGKKLVVTAQDELTLICGGGYIKIKSGNVEIGGPGKLLVKNAGIKKAGSGSMQGVMKSFEPESFDENFIISNPASGKPIANQKYEIHMPDGSVIAGITDAMGYSSLVASKASDDLKIILKKEGHHHHHH | soluble
MSLEASVEGLDGPAATNVVNFLEPLDTRNISEARLDSDIRERTQRALRAFGYYSPQIETSYPDGMFAGDVVIAIDPGPRTHITQLDLGVDGAAGDDPAFRKALASIPLEEGDPLRHDRYDSAKTRLSTLALERGYFDAGFAQQRMEVRPWEASARLFLRMRSGPRYRFGDIRFAGSQIEEARLRRMLPFTKGDPYLAGQLAEYNQRLGQTNWFRGIAVRPRIGDERNVTRGGQWWQEATGRTPPLSSGAGLAAVRRLHGLQSTDVPVDVDLVPADRHKFETGIGYATDVGPRVQFSWEMPWLNDRGHSLSNSLYLSGPEQRFDGEYVMPLANPLRDSYRLSYGLRSLDNEDTQSLESSVELARRWEFDNDWVQELYFRTTYEDFTQADQDEQVLLLYPGISWTRTRTRQPNFPRWGDRQRLALEVSDPAWGSDARFLRARFDSQWIRTLGSDNRFVGRIGGGATATDTFDKIPPSLRFFAGGDQSVRGYSYESLSPENDDGELLGGQHMLTASAEYQRRVTGNWWGATFVDTGNAFNAWWPEELKTGAGVGVRWISPVGPVRFDIAHPFDNEEDAWRLHFAIGPEEGHHHHHH | not soluble
MSLEDRIDQVEQAITKSRRYQTVAPATVRRLARAALVAARGDVPDAVKRTKRGLHEIYGAFLPPSPPNYAALLRQLDSAVDAGDDEAVRAALRRAMSVHVSTRERLPHLAEFYQEIFRHVPQPNTLRDLACGLNPLAAPWMGLSDQTVYVASDIDARLIGFVDAALTRLGVAHRTSVVDLLEDRLDEPTDVTLLLKTLPCLETQRRGSGWEVIDIVNSPIIVVTFPTKSLGQRSKGMFQNYSQSFESQARERSCRIQRLEIGNELIYVIQKEGHHHHHH | soluble
MSLEDSTATFETRNMYFNRDFRDGTSAQQSKRDEWAQGFILNFESGYTDGTVGFGLDALGMLGIKLDSSPDRTDSGLLPTHDDGKAADEYSKLGLTGKVKISQTELKIGTLIPELPTLQPNDGRILPQTFEGGLLTSKEIKGLTFTGGRIDKAKDRNDTNWEDLALNNKNGRFGGTFSADNLALGGLDYQFTDRITGSYHFAQLDDIYRQHFIGMVATQPWGPGTLGADLRLAMSDDAGAAKAGNIDNTTVNGMLSYALGGHKVSAAWQQLSGESAFPYVDGADPYLVNFVQINDFAGADERSWQARYDYNFAALGVPGLTFMTRYISGDNVSRAAGGEGKEWERNTELKYVVQSGPLKNVAVRLRNATFRSNFARDADEVRLLVSYSVALWEGHHHHHH | soluble
MSLEDYILKVEELNYNYSDGTHALKGINMNIKRGEVTAILGGNGVGKSTLFQNFNGILKPSSGRILFDNKPIDYSRKGIMKLRESIGIVFQDPDNQLFSASVYQDVSFGAVNMKLPEDEIRKRVDNALKRTGIEHLKDKPTHCLSFGQKKRVAIAGVLVMEPKVLILDEPTAGLDPMGVSEIMKLLVEMQKELGITIIIATHDIDIVPLYCDNVFVMKEGRVILQGNPKEVFAEKEVIRKVNLRLPRIGHLMEILKEKDGFVFDELDLTIGQARKTINSWKNKIFNEGHHHHHH | soluble
MSLEELPRFFTQNGRHALLVDGAPYTILAAQLHNSSAWPAVLPPALDQVVALHANTVEAPVYWEQFEPAPGRFDTTNVDALIAGARKRGLRVALLWFGSWKNGQMHYVPEWIKRDEATYPRMRDANGEPVDVLSPHVAANVQADARAFTALMQHLRKVDGDRHTVIVVQVENEPGAIGTVRDHGPAGEAAFAQPVPAGIAAALGKPAGSWQQLFGAEAAEAFNAHATAAYIEQVAAAGKRVYPLPLYVNTWLRYKGKRYPGMDYPSGGATVNVFALWRAATPSIDFIGTDIYTSDYGEYTKVIGQYAREGHHHHHH | soluble
MSLEEYPQMIVFEDVPYGFWAYDAIMDLAYHKIILGYGNGKYGVGDLTTREQVAGIIYRTLEMKEEGSVANPYKDISDSTTTFKKEILALTKRGVFTGDGQGNFRPKAPVSRAEMAVILKRAFTFETKQKHTFKDIPKGHWAEDAISALQSNNVVRGTGNGMYELNRPVPREQYAQFINNAIINYHLKEDWREGHHHHHH | not soluble
MSLEISFTRVALLAAALFFVGCDQKPQPAKTHATEVTVLEGKTMGTFWRASIPGIDAKRSAELKEKIQTQLDADDQLLSTYKKDSALMRFNDSQSLSPWPVSEAMADIVTTSLRIGAKTDGAMDITVGPLVNLWGFGPEQQPVQIPSQEQIDAMKAKTGLQHLTVINQSHQQYLQKDLPDLYVDLSTVGEGYAADHLARLMEQEGISRYLVSVGGALNSRGMNGEGLPWRVAIQKPTDKENAVQAVVDINGHGISTSGSYRNYYELDGKRLSHVIDPQTGRPIEHNLVSVTVIAPTALEADAWDTGLMVLGPEKAKEVVRREGLAVYMITKEGDSFKTWMSPQFKSFLVSEKEGGSHHHHHH | soluble
MSLEKKTANDVVTLARAQDRLTTLEYIEAIFEDFLEFHGDRYFADDLAVVGGVATLQGKPVTVVGIQKGRNLPENIERNFGSPNPEGYRKALRLMKQAEKFNRPVITFVNTAGAYCGIGAEERGEGEAIAQNLLEMSDLKVPIISVIIGEGGSGGALALAVADEVWMLEHTIYAVLSPEGFASILWKDGSRAKEAAELMKITATELKELAIVDKVIPEVMNGQPLEQAKINRMLQKAFISKLTELAKLDTETLLEKRYQRFRKYEGHHHHHH | soluble
MSLEKNALYFVPLGGAGEIGMNLNLYAHQGKWLMVDLGVTFGNETTPGVDIILPDPSFIEERKGDLVGLVLTHAHEDHVGAVAYLWPYLECPVYATPFTAEFLRHKLREEGIEPDVKLIEIPLGGRFTVGPFDIEMITTTHSIPEPNHLAIRTTAGTVLHTADWKFDPEPLVGPPADEAALRRLGDEGVLAMVGDSTNIFTEGHSASEGDVRRSMIDLFARFQGRIAVGCFASNIARMETIALAAKANGREVALVGRSLWRMMETARTCGYLKGCPAFLGDEEAAKLPRDKVVYICTGSQGEPRAALKRIASGSHPYVSLSAGDVVIFSSRVIPGNERSILQLQNQLVEMGVKLITSRDAMVHVSGHPGAEEVRSLYGMVRPSIALPVHGEFLHLDHHADVARDLGVAHVVRITNGAVVRLDGAEPTVVGKVPFGRLALDGDRLLQIDCEIIRDRKRMGYNGSVAVSLAIDDKGKLLGTPKISARGLLDPEDDADEVADLTNRVRGAVNAVRPADRKDDAAVAEAVRLAVRRVFRQGQNRRPVTDIHVLRVEGHHHHHH | soluble
MSLEKVKVAVIGAGNRGMYAYAPYIYENSDVCEIVAVAEPKKGRRELFTKKYNLDSKNVFETLEDFFKHDKMADAVIIATNDDRHYDVAKLALEKGYHVLLEKPMSNSLDGLVHIDDLCDKYKDKIFMICHVLRYSPFYNKLKEIVESKKLGELVSIQYNENIGYWHFAHSFTRGNWRNSNETSPLILAKSCHDMDILLYLVGSRCKKISAFGSLKHLNNQNASGEMAQNCLQCLVEKKCPYSAKRIYLEKDRSINRAVHINPTEENLLNILKTSPYGRCVYRCDNNVVDNMVNILQFENGVTATFNLCAFTKENGRTIKLMFSHGEVGGDLNKNEIRIKEFGKNEEIVMNPSNQQNMVEEYDRNLIAEFIKLVSNKELEKGRVAAKEAIQSHVMAFAAEYSRVSDEVVYIEEFFDSAKQMTKEIEETEGHHHHHH | soluble
MSLELKITDFKVFVAQANFEWAFVRIYSKDLYGTGEAGPAPGLKGMESEFIQLLIGEDAFKVNRIAEKLRYATLYSGTTVYHLISAINIALYDLIGKYLNVPIYKLLGGDKTEIPVYVDAHGGKGLEAINALHLPVNLPWIKEAEVETNRLITTNNPVHGRLSMEKWNEDYSPEAYAKRALKMKNEGYKAMKFDLDVPTPYIDLRRVRNGDLSLKDIDYMVDIVKAVRESVGDEVEIMFDLHWRYNLNTAIRICKALEPYRLRWLEDPMPAIMAVSNYDELKLLTSQCSVPIETGENLYTVYQFKDLLNTGVRVWAPDIVKAGGITEGRRIAELAAMYDIEYSPHNIASPIGTMAHAHVGSIANTFGFVEFHGHDVPFWNEIVKPKRKIIEDGVIKLTDDPGLGIDLDDEVMRKYWPTYELEGHHHHHH | not soluble
MSLELSPTYQTERFTKFSDTLKEFKIEQNNEQNPIDPFNIIREFRSAAGQLALDLANSGDESNVISSKDWELEARFWHLVELLLVFRNADLDLDEMELHPYNSRGLFEKKLMQDNKQLYQIWIVMVWLKENTYVMERPKNVPTSKWLNSITSGGLKSCDLDFPLRENTNVLDVKDKEEDHIFFKYIYELILAGAIDEALEEAKLSDNISICMILCGIQEYLNPVIDTQIANEFNTQQGIKKHSLWRRTVYSLSQQAGLDPYERAIYSYLSGAIPNQEVLQYSDWESDLHIHLNQILQTEIENYLLENNQVGTDELILPLPSHALTVQEVLNRVASRHPSESEHPIRVLMASVILDSLPSVIHSSVEMLLDVVKGTEASNDEGHHHHHH | not soluble
MSLEPASAPKVERLEVSAYTVPTETPESDGTIAWSETTLVMVRMAACGAEGLGYTFADVATAALIDAHLKDAVVGHNPLNIPELWSTMVRKVRNLGRPGVCSMAISAVDNALWDLKARLLHLSVADLLGRAHDSIGAYGSGGFTSYSDEELRQQLTGWIGQGLTQVKMKIGSDPASDLARVRSARGAIGPDAELFVDANGAYDRKQALAKAAAFADLGVSWFEEPVSSDDLAGLRLIRERAPAGMRIAAGEYGYDSFYFRRMLEAEAVDVLQGDATRCAGITGFLAAGNLSTSFSTPFSAHTAPSLHAHAACALTSAINVEYFFDHYRIEQMFFDGALVPSNGVLRPDSTRPGFGLECKLSDMEKYRVYGNVTTEGHHHHHH | not soluble
MSLEQNPVDLDSLTLVNEDELETSVALDNMARRARNGCNEQLKVLCHRIEYLFESKREVNEHNNPLEPRQLVACFSEGLEKLSLDIKARLIILKLFEREVMAETGYLVSEANKVLIDAGVLPEMKSAPIAPAHKPGSRSLANQGNDNVMPTAGNAGVHSNDQVFGLLQELLVTMRGMQARPGDGASDVASEAPMAVMQNGVPYMNGAPLANAASVHQVNSDDLLGVLNRLQRVERSLGEDEGEERADLKTDLSELLDNEHGEAIHALDQADDDVINLVALLFDFILDDEGLPSDIKALLGRLQIPLLKVAIMDKAFFNNDNHEARLLLNMLARAGSQWDPHLGIQDDLYQRINHAVHRIIDDYEDDASLFSSLLQEFQQFFDSQKTRSDRVEQRVREAEEGKARAEQARREVVTVLDNRMAGRQLPDVVVRLLRQGWQQALYLTWLHEGENSPLWQQQVKVVDAVVWSVLEHRDQDALEKLKTLSPKLLKTLHEGLTKINHDAMETKQLLVKFRDVHHRLLKGLQTERVAVEPELPAQRAQPETAPELPENHFLVKKCSQLAPGQWIEIQDNDEPRRAKLAANIRAGVKIVFTNRRGIKVQEYSAYTLAVALHNGAVKLIDEGALFDRALEAVIGDLRRMQGNEGHHHHHH | not soluble

Source: the DeepSol protein solubility set
